Reference: patent US20180021429A1, “ANTICANCER AGENTS OR ANTIMETASTATIC AGENTS USING FSTL1 AND COMBINATION DRUG THEREOF” (PHARMA FOODS INTERNATIONAL CO., LTD., priority 2015, published 2018)
“Also recorded” adds a separate entry of the source.

Test system: induction of mesenchymal stem cells (MSCs) by FSTL1
Test: Inhibitory activity against induction of MSC by FSTL1, CD45-negative cells (Examples 6, 8, 12)
Format: cell-based, mouse
Conditions: antibody 10 μg/mL
Description: (§1) Mouse bone marrow cells prepared in the same way as in Example 4 were supplemented with 50 ng/mL (final concentration) of FSTL1 and 10 μg/mL of the anti-FSTL1 antibody (#5-2, #5-3, #5-8, #5-10, 45-43, #6-55, or #7-34) or a control antibody anti-DNP antibody and cultured under stimulation. 11 days thereafter, the number of cells was counted while the cells were stained with a PE-Cy5-labeled anti-CD45 antibody (BD Pharmingen/Becton, Dickinson and Company, Cat. No. 555484), and the content of CD45-negative cells reported to generally contain MSCs at a high rate was analyzed by flow cytometry using FACScan to calculate the percentage and number of MSCs per culture (FIG. 5A).
(§2) Mouse bone marrow cells prepared in the same way as in Example 4 were supplemented with 20 ng/mL (final concentration) of FSTL1 and 10 μg/mL of the anti-FSTL1 antibody (#5-2, #5-3, #5-8, #5-10, #5-43, #6-55, #8-1, #8-4, #8-7, and #8-8) or a control antibody anti-DNP antibody and cultured under stimulation. 8 days thereafter, the number of cells was counted while the cells were stained with a PE-Cy5-labeled anti-CD45 antibody, and the content of CD45-negative cells was analyzed by flow cytometry using FACScan to calculate the percentage and number of MSCs per culture (FIG. 6A).
as §2, with “(#5-2,” for “(#5-2, #5-3,”, “#5-8,” for “#5-8, #5-10, #5-43,”, “#6-55, #7-34,” for “#6-55,”, “#8-7, or” for “#8-7, and”, “(FIG. 7).” for “(FIG. 6A).”
as §1, with “35A).” for “5A).”
as §2, with “36A).” for “6A).”
as §2, with “(#5-2,” for “(#5-2, #5-3,”, “#5-8,” for “#5-8, #5-10, #5-43,”, “#6-55, #7-34,” for “#6-55,”, “#8-7, or” for “#8-7, and”, “(FIG. 37).” for “(FIG. 6A).”

[1] = Example 8, FIG. 6A/36A, FSTL1 20 ng/mL, 8 days
[2] = Example 12, FIG. 7/37, FSTL1 20 ng/mL, 8 days
[3] = Example 6, FIG. 5A/35A, FSTL1 50 ng/mL, 11 days

| Molecule | inhibitory activity against the expansion of CD45-negative cells by FSTL1 [1] | inhibitory activity against the expansion of CD45-negative cells by FSTL1 [2] | inhibitory activity against the expansion of CD45-negative cells by FSTL1 [3] |
| --- | --- | --- | --- |
| #6-55: chicken-mouse chimeric anti-FSTL1 antibody clone; variable regions SEQ ID NO: 783 (light), 785 (heavy) (antibody, V domains shown, mouse constant regions) VH: AVTLDESGGGLQTPGGALSLVCKGSGFTFTSVTMQWVRQAPGKGLEWVASVCSGSSTYYAPAVKGRATISRDNGQSTVRLQLSNLRPEDTGTYYCAKIAGRARWSCTSAAYNIDAWGHGTEVIVSS VL: ASTQPSSVSAIPGETVKITCSGGGNNYGWYQQRSPGSAPVTVIYYNDNRPSNIPSRFSGSTSGSTSTLTITGVQADDEAIYYCGSWDSNTDSGIFGAGTTLTVL | exhibited inhibitory activity against the expansion of CD45-negative cells by FSTL1; also recorded: Inhibitory activity was confirmed | higher inhibitory activity was confirmed in the order of #7-34, #5-2, #6-55, and #8-7 | – |
| #7-34: chicken-mouse chimeric anti-FSTL1 antibody clone; variable regions SEQ ID NO: 787 (light), 789 (heavy) (antibody, V domains shown, mouse constant regions) VH: AVTLDESGGGLQTPGGGLSLVCKASGFTFSSVTMQWVRQAPGKGLEWVASICSGSSTYYGPAVKGRATISRDNGQNTVRLQLNNLRAEDTATYYCAKIVGRGRWSCTSAAYNIDAWGHGTEVIVSS VL: ASTQPSSVSANPGETVKITCSGGGNNYGWYQQKSPGSAPVTVIYYNNNRPSNIPSRFSGSTSGSTSTLTITGVQAEDEAVYYCGSYEGSTDSGIFGAGTTLTVL | – | higher inhibitory activity was confirmed in the order of #7-34, #5-2, #6-55, and #8-7; also recorded: stronger inhibitory activity was confirmed in the order of clone #7-34, #5-2, 46-55, and #8-7 | higher inhibitory activity and substantially completely inhibited the action of FSTL1 |
| #5-43: chicken-mouse chimeric anti-FSTL1 antibody clone; variable regions SEQ ID NO: 779 (light), 781 (heavy) (antibody, V domains shown, mouse constant regions) VH: AVTLDESGGGLQTPGGGLSLVCKGSGFTFSSFNMFWVRQAPGKGLEWVAGIGKDGGTGYGAAVDGRATISKDSGQSTLRLQLNNLRAEDTGTYYCAKAAGGCSYDWCGAYTGDIDTWGHGTEVIVSS VL: ASTQPSSVSANPGEAVKITCSGGSGSYYGWYQQKSPGSAPVTVIYNNNQRPSDIPSRFSGSKSGSTATLTITGVQAEDEAVYFCGGYDSSTGHGGIFGAGTTLTVL | exhibited inhibitory activity against the expansion of CD45-negative cells by FSTL1; also recorded: Inhibitory activity was confirmed | – | higher inhibitory activity and substantially completely inhibited the action of FSTL1 |
| #8-4: chicken-mouse chimeric anti-FSTL1 antibody clone; variable regions SEQ ID NO: 795 (light), 797 (heavy) (antibody, V domains shown, mouse constant regions) VH: AVTLDESGGGLQTPGGGLSLVCKGSGFTLSSFNMFWVRQAPGKGLEWVAGVGKDGGTAYGAAVDGRATISRDSGQSTVRLQLNNLRAEDTGTYFCAKAAGGCSYSWCGAYVGDLDAWGHGTEVIVSS VL: ASSQPSSVSANPGETVKITCSGGSGYYYGWYQQKSPGSAPVTVIYNNDNKPSDIPSRFSGSKSGSTGTLTITGVQVEDEAVYFCGGYDNSGTGIFGAGTTLTVL | exhibited inhibitory activity against the expansion of CD45-negative cells by FSTL1 | – | – |
| #5-2: chicken-mouse chimeric anti-FSTL1 antibody clone; variable regions SEQ ID NO: 763 (light), 765 (heavy) (antibody, V domains shown, mouse constant regions) VH: AVTLDESGGGLQTPGGGLSLVCKGSGFTFSSFNMFWVRQAPGKGLEWVAGVGKDGGTGYGAAVDGRATISKDNGQSTLRLQLNNLRAEDTGTYYCAKAAGGCSYGWCGSYVGDIDAWGHGTEVIVSS VL: ASTQPSSVSANPGEAVKITCSGGSGSYYGWYQQKSPGSAPVTVIYNNNQRPSDIPSRFSGSKSGSTATLTITGVQAEDEAVYFCGGYDSSTGHGGIFGAGTTLTVL | – | higher inhibitory activity was confirmed in the order of #7-34, #5-2, #6-55, and #8-7; also recorded: stronger inhibitory activity was confirmed in the order of clone #7-34, #5-2, 46-55, and #8-7 | – |
| #5-3: chicken-mouse chimeric anti-FSTL1 antibody clone; variable regions SEQ ID NO: 767 (light), 769 (heavy) (antibody, V domains shown, mouse constant regions) VH: AVTLDESGGGLQTPGGALSLVCKGSGFSFSSFNMFWVRQAPGKGLEWVAGIGKDGVPKYGAAVDGRATISKDNGQSTMRLQLNNLRAEDTGTYFCAKAAGGCSYDWCGIYAGDIDTWGHGTEVIVSS VL: ASTQPSSVSANPGETVKITCSGGSGYYYGWYQQKSPGSVPVTVIYNNNNRPSDIPSRFSGSKSGSTGTLTITGVRAEDEAVYYCGGYDNSGTGIFGAGTTLTVL | – | – | higher inhibitory activity and substantially completely inhibited the action of FSTL1 |
| #5-8: chicken-mouse chimeric anti-FSTL1 antibody clone; variable regions SEQ ID NO: 771 (light), 773 (heavy) (antibody, V domains shown, mouse constant regions) VH: AVTLDESGGGLQTPGGGLSLVCKGSGFTFSSFNMFWVRQAPGKGLEWVAGIGKDGVPKYGTAVDGRATISKDNGQSTMRLQLNNLRAEDTGTYFCAKAAGGCSYDWCGIYTGDIDTWGHGTEVIVSS VL: ASTQPSSVSANPGEAVKITCSGGSGSYYGWYQQKSPGSAPVTVIYNNNQRPSDIPSRFSGSKSGSTATLTITGVQAEDEAVYFCGGYDSSTGHGGIFGAGTTLTVL | exhibited inhibitory activity against the expansion of CD45-negative cells by FSTL1; also recorded: Inhibitory activity was confirmed | – | higher inhibitory activity and substantially completely inhibited the action of FSTL1 |
| #8-1: chicken-mouse chimeric anti-FSTL1 antibody clone; variable regions SEQ ID NO: 791 (light), 793 (heavy) (antibody, V domains shown, mouse constant regions) VH: AVTLDESGGGLQTPGGALSLVCKGSGFTFSSFNMFWVRQAPGKGLEWVAGIGKDGVPKYGAAVDGRATISKDNGQSTMRLQLNNLRAEDTGTYFCAKAAGGCSYDWCGIYAGDIDTWGHGTEVIVSS VL: ASTQPSSVSANPGEAVKITCSGGSGSYYGWYQQKSPGSAPVTVIYNNNQRPSDIPSRFSGSKSGSTATLTITGVQAEDEAVYFCGGYDSSSGHGGIFGAGTTLTVL | exhibited inhibitory activity against the expansion of CD45-negative cells by FSTL1; also recorded: Inhibitory activity was confirmed | – | – |
